Experiment [1] concerns the target T1, human epidermal growth factor receptor 2 (HER2) (human, UniProt P04626 23-1255).
T1 construct: whole, on cells; One entry for endogenous HER2 on tumor cell lines and for the fully human construct hu-HER2 on CHO-S cells; also called ErbB-2; hu-HER2
The experiment is described as follows: flow cytometry on A431 cells (low HER2), PE-goat anti-human IgG, MFI; EC50 by non-linear regression (Example 12). (In general: Flow cytometry measures light scatter and fluorescence of single cells or particles in a stream.)
Method: (§1) Binding of HER2 antibodies was detected using a Phycoerythrin (PE)-conjugated goat-anti-human IgG antibody (Jackson). […] EC₅₀ values were determined by means of non-linear regression (sigmoidal dose-response with variable slope) using GraphPad Prism V4.03 software (GraphPad Software, San Diego, Calif., USA).

The target in experiment [2] is T1, human epidermal growth factor receptor …. The experiment is described as follows: flow cytometry on AU565 cells (high HER2), PE-goat anti-human IgG, MFI; EC50 by non-linear regression (Example 12).
Method: as §1
Experiment [3] has the same target. The experiment is described as follows: cell-based or functional assay.
Experiment [4] has the same target. The experiment is described as follows: flow cytometry on A431 cells (low HER2), PE-goat anti-human IgG, MFI; EC50 by non-linear regression (Example 12). This is another data set of the same source.
Method: as §1
Experiment [5] has the same target. The experiment is described as follows: flow cytometry on AU565 cells (high HER2), PE-goat anti-human IgG, MFI; EC50 by non-linear regression (Example 12). This is another data set of the same source.
Method: as §1
Experiment [6] has the same target. The experiment is described as follows: flow cytometry on A431 cells (low HER2), PE-goat anti-human IgG, MFI; EC50 by non-linear regression (Example 12). This is another data set of the same source.
Method: as §1
Experiment [7] shares this target. The experiment is described as follows: flow cytometry on AU565 cells (high HER2), PE-goat anti-human IgG, MFI; EC50 by non-linear regression (Example 12). The source holds these as a separate data set.
Method: as §1

We go through 15 molecules from patent US20140170149A1 (Genmab, published 2014).

B1: HER2 HuMab 025 (antibody, V domains shown)
VH: QVQLQQWGAGLLKPSETLSLTCAVYGGSFSDYYWNWIRQPPGKGLEWIGEIHHSGSTNYNPSLKSRVTISVDTSKNQFSLKLSSVTAADTAVYYCARGYYDSGVYYFDYWAQGTLVTVSS
VL: DIQMTQSPSSLSASVGDRVTITCRASQGISRWLAWYQQKPEKAPKSLIYAASSLRSGVPSRFSGSGSGTDFTLTISSLQPEDFATYYCQQYNSYPITFGQGTRLEIK
notes: also called PC1014-025; TH1014-025
For B1, in experiment [1], the EC50 came to 0.128 µg/mL. The EC50 in experiment [2] was 0.58 µg/mL. Besides, in experiment [3], the “EC50, fab-CypHer5E internalization assay, AU565 cells” value (“EC50 … AU565 cells” below) is 0.0301 µg/mL and the “Maximal MFI, fab-CypHer5E internalization assay, AU565 cells” value (“Maximal MFI” below) was found to be 63400 MFI.

B2: HER2 HuMab 159 (antibody, V domains shown)
VH: EVQLVQSGAEVKKPGESLKISCKGSGYNFTSYWIGWVRQMPGKGLEWMGIIYPGDSDTRYSPSFQGQVTISADKSISTAYLQWSSLKASDTAMYYCARWGTYYDILTGYFNWFDPWGQGTLVTVSS
VL: DIQMTQSPSSLSASVGDRVTITCRASQGISSWLAWYQQKPEKAPKSLIYAASSLQSGVPSRFSGSGSGTDFTLTISSLQPEDFATYYCQQYYIYPWTFGQGTKVEIK
notes: also called PC1014-159
Take B2: the EC50 in experiment [4] is 0.855 µg/mL; in experiment [5], 1.3 µg/mL. In experiment [3], the “Maximal MFI” value was found to be 92400 MFI.

B3: HER2 HuMab 098 (antibody, V domains shown)
VH: EVQLLESGGGLVQPGGSLRLSCAASGFTFSNYGMSWVRQAPGKGLEWVSAISGSAYSTYYADSVKGRFTISRDNSKNTLWLQMNSLRAEDTAVYYCAKAHYHGSGSYYTLFDYWGQGTLVTVSS
VL: DIQMTQSPSSLSASVGDRVTITCRASQGISSWLAWYQQKPEKAPKSLIYAASSLQSGVPSRFSGSGSGTDFTLTISSLQPEDFATYYCQQYNSYPYTFGQGTKLEIK
notes: also called PC1014-098; TH1014-098
With B3, the half-maximal effective concentration (EC50) in experiment [1] was determined as 0.101 µg/mL; in experiment [2], 0.336 µg/mL. The “EC50 … AU565 cells” value in experiment [3] came out at 0.0138 µg/mL. In addition, the “Maximal MFI” value in experiment [3] stood at 135000 MFI.

B4: HER2 HuMab 091 (antibody, V domains shown)
VH: QVQLQQWGAGLLKPSETLSLTCAVSGGSFSGYYWTWIRQPPGKGLEWIGEIYHSGDTNYNPSLKSRVTISVDTSKNQFSLKLYSVTAADTAVYYCARLYFGSGIYYLDYWGQGTLVTVSS
VL: DIQMTQSPSSLSASVGDRVTITCRASQGISSWLVWYQQKPEKAPKSLIYAASSLQSGVPSRFSGSGSGTDFTLTISSLQPEDFATYYCQQYNSFPPTFGQGTKVEIK
notes: also called PC1014-091
As for B4, the figures for the EC50 in experiment [1] and in experiment [2] were 0.633 µg/mL and 0.965 µg/mL, respectively. The “EC50 … AU565 cells” value in experiment [3] was determined as 0.033 µg/mL. Further, the “Maximal MFI” value in experiment [3] stood at 50700 MFI.

B5: HER2 HuMab 050 (antibody, V domains shown)
VH: EVQLLESGGGLVQPGGSLRLSCAASGFTFSSYAMNWVRQAPGKGLEWVSAISGRGGTTYYADSVKGRFTISRDNSKNTLYLQMSSLRAEDTAVYYCAKARANWDYFDYWGQGTLVTVSS
VL: DIQMTQSPSSVSASVGDRVTITCRASQGISSWLAWYQHKPGKAPKLLIYAASILQSGVPSRFSGSGSGTDFTLTISSLQPEDFATYYCQQANSFPITFGQGTRLEIK
notes: also called PC1014-050
Take B5: the EC50 is 1.14 µg/mL in experiment [1] and 0.722 µg/mL in experiment [2].

B6: HER2 HuMab 106 (antibody, V domains shown)
VH: EVQLVQSGAEVKKPGESLKISCKGSGYSFTRYWIGWVRQMPGKGLEWMGIIYPGDSDTRYSPSFQGQVTISADKSISTAYLQWSSLKASDTAMYYCARLTGDRGFDYYSGMDVWGQGTTVTVSS
VL: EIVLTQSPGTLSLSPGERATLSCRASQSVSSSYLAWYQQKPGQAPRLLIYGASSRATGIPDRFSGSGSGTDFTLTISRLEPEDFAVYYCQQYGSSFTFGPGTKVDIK
As for B6, the values for the 50% effective concentration (EC50) in experiment [6] and in experiment [7] were 1.66 µg/mL and 1.55 µg/mL, respectively. The “EC50 … AU565 cells” value in experiment [3] was determined as 0.0686 µg/mL. Further, the “Maximal MFI” value in experiment [3] is 57400 MFI.

B7: HER2 HuMab 059 (antibody, V domains shown)
VH: QVQLVQSGAEVKKPGASVRVPCKASGYTFTRYGISWVRQAPGQGLEWMGWISAYNGKTYYAQKLQGRVTMTTDTSTSTAYMELRSLRSDDTAVYYCARSPLLWFEELYFDYWGQGTLVTVSS
VL: EIVLTQSPGTLSLSPGERATLSCRASQSVSSTYLAWYQQKPGQAPRLLIYGASSRATGIPDRFSGSGSGTDFTLTISRLEPEDFAVYYCQQYGTSLFTFGPGTKVDIK
notes: also called PC1014-059
In turn, B7 gave an EC50 in experiment [6] of 0.213 µg/mL. The molecule further returned an EC50 in experiment [7] of 1.31 µg/mL. In addition, in experiment [3], the “EC50 … AU565 cells” value turned out to be 0.0148 µg/mL and the “Maximal MFI” value was found to be 77100 MFI.

B8: HER2 HuMab 060 (antibody, V domains shown)
VH: EVQLVQSGAEVKKPGESLKISCKGSGYRFTSYWIGWVRQMPGKGLEWMGSIYPGDSYTRNSPSFQGQVTISADKSIATAYLQWNSLKASDTAMYYCARHAGDFYYFDGLDVWGQGTTVTVSS
VL: not shown
notes: also called PC1014-060
With B8, the EC50 turned out to be 1.98 µg/mL in experiment [6] and 2.68 µg/mL in experiment [7]. Also, the “EC50 … AU565 cells” value in experiment [3] is 0.0362 µg/mL. The “Maximal MFI” value in experiment [3] was 68200 MFI.

B9: HER2 HuMab 129 (antibody, V domains shown)
VH: QVQLVESGGGVVQPGRSLRLSCAASGFTFSTFAIHWVRQAPGKGLEWVAVISYDGGHKFYADSVKGRFTISRDNSKNTLYLQMNSLRAEDTAMYYCARGLGVWGAFDYWGQGTLVTVSS
VL: EIVLTQSPATLSLSPGERATLSCRASQSVSSYLAWYQQKPGQAPRLLIYDASNRATGIPARFSGSGSGTDFTLTISSLEPEDFAVYYCQQRSNWWTFGQGTKVEIK
notes: also called PC1014-129
Turning to B9, it took 0.316 µg/mL to reach a half-maximal effect in experiment [4] (EC50). In experiment [3], the “EC50 … AU565 cells” value stood at 0.00715 µg/mL and the “Maximal MFI” value came to 60300 MFI. Further, in experiment [5], the EC50 was found to be 0.578 µg/mL.

B10: HER2 HuMab 169 (antibody, V domains shown)
VH: QVQLVQSGAEVKKPGASVKVSCKASGYTFTNYGISWVRQAPGQGLEWMGWLSAYSGNTIYAQKLQGRVTMTTDTSTTTAYMELRSLRSDDTAVYYCARDRIVVRPDYFDYWGQGTLVTVSS
VL: EIVLTQSPATLSLSPGERATLSCRASQSVSSYLAWYQQKPGQAPRLLIYDASNRATGIPARFSGSGSGTDFTLTISSLEPEDFAVYYCQQRSNWPRTFGQGTKVEIK
With B10, the results for the EC50 in experiment [4] and in experiment [5] were 0.415 µg/mL and 0.908 µg/mL, respectively. For the same molecule, in experiment [3], the “Maximal MFI” value stood at 38800 MFI.

B11: HER2 HuMab 111 (antibody, V domains shown)
VH: QVQLVQSGAEVKKPGSSVKVSCKASGGTFSSYGISWVRQAPGPGLEWMGRIIPILGIANYAQKFQGRVTITADKSTNTAYMELSSLRSEDTAVYYCARDQEYSSNWYYWGQGTLVTVSS
VL: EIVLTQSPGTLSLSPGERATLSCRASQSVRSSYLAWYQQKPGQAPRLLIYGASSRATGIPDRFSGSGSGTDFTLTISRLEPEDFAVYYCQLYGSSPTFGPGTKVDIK
notes: also called PC1014-111
B11: the EC50 amounted to 0.996 µg/mL in experiment [6] and 0.915 µg/mL in experiment [7]. In addition, the “EC50 … AU565 cells” value in experiment [3] came to 0.0352 µg/mL. Also, the “Maximal MFI” value in experiment [3] was found to be 81700 MFI.

B12: HER2 HuMab 005 (antibody, human IgG1, V domains shown)
VH: EVQLVQSGAEVKKPGESLKISCKASGYSFHFYWIGWVRQMPGKGLEWMGSIYPGDSDTRYRPSFQGQVTISADKSISTAYLQWTSLKASDTAIYYCARQRGDYYYFYGMDVWGQGTTVTVSS
VL: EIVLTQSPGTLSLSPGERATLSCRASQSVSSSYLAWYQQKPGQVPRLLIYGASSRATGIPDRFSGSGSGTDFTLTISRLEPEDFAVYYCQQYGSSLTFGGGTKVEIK
notes: Human IgG1,κ; also called PC1014-005; TH1014-005
For the molecule B12, in experiment [6], the midpoint of the response, the EC50, lay at 0.789 µg/mL. This molecule also yielded an EC50 in experiment [7] of 0.818 µg/mL. Moreover, in experiment [3], the “EC50 … AU565 cells” value was 0.0214 µg/mL and the “Maximal MFI” value was 95100 MFI.

B13: HER2 HuMab 127 (antibody, V domains shown)
VH: EVQLVQSGAEVKKPGESLTISCKGSGYSFSIYWIGWVRQMPGKGLEWMGIIFPGDSDIRYSPSFQGQVTISADKSISTAYLQWSSLKASDTAMYYCARQPGDWSPRHWYFDLWGRGTLVTVSS
VL: VIWMTQSPSLLSASTGDRVTISCRMSQGISSYLAWYQQKPGKAPELLIYAASTLQSGVPSRFSGSGSGTDFTLTISYLQSEDFATYYCQQYYSFPLTFGGGTKVEIK
For the molecule B13, the EC50 in experiment [1] worked out at 0.27 µg/mL; in experiment [2], 2.29 µg/mL. Moreover, the “EC50 … AU565 cells” value in experiment [3] was ~0.00968 µg/mL. Also, the “Maximal MFI” value in experiment [3] is 138000 MFI.

B14: HER2 HuMab 132 (antibody, V domains shown)
VH: QVQLVQSGAEVKKPGASVKVSCKASGYTFTSYGISWVRQAPGQGLEWMGWISAYNGNSNYVQKFQGRVTMTTDTTTSTAYMELRSLTSDDTAVYYCAREYSYDSGTYFYYGMDVWGQGTTVTVSS
VL: EIVLTQSPATLSLSPGERATLSCRASQSVSSYLAWYQQKPGQAPRLLIYDASNRATGIPARFSGSGSGTDFTLTISSLEPEDFAVYYCQQRSNWPMYTFGQGTKLEIK
notes: also called PC1014-132
In turn, B14 registered an EC50 in experiment [4] of 0.068 µg/mL. In experiment [3], the “EC50 … AU565 cells” value was 0.0114 µg/mL and the “Maximal MFI” value worked out at 112000 MFI. In experiment [5], this molecule yielded an EC50 of 0.911 µg/mL.

B15: HER2 HuMab 084 (antibody, V domains shown)
VH: QVQLVQSGAEVKKPGSSVKVSCKASGGTFRTYAINWVRQAPGQGLEWMGRINTVLGIVNHAQKFQGRVTITADKSTNTAYMELNSLRSEDTAVYYCAREKGVDYYYGIEVWGQGTTVTVSS
VL: DIQMTQSPSSVSASVGDRVTITCRASQGISSWLAWYQHKPGKAPKLLIYVASTLQSGVPSRFSGSGSGTDFTLTISSLQPEDFATYYCQQANSFPLTFGGGTKVEIK
notes: also called PC1014-084
Turning to B15, the EC50 in experiment [1] was determined as 0.498 µg/mL; in experiment [2], 0.491 µg/mL. Moreover, the “EC50 … AU565 cells” value in experiment [3] was 0.0305 µg/mL. In experiment [3], the “Maximal MFI” value was 71100 MFI.

A word on the EC50: it is the concentration needed to bring the measured effect to its halfway point. A high value points to weaker potency.
